# In the DeepSol protein solubility set:
# Assay: soluble on expression in E. coli; label from the status in PepcDB or PDB records
row,Sequence,soluble on expression in E. coli
1,MASWSHPQFEKGASTSLYKKAGRMSKFTWKELIQLGSPSKAYESSLACIAHIDMNAFFAQVEQMRCGLSKEDPVVCVQWNSIIAVSYAARKYGISRMDTIQEALKKCSNLIPIHTAVFKKGEDFWQYHDGCGSWVQDPAKQISVEDHKVSLEPYRRESRKALKIFKSACDLVERASIDEVFLDLGRICFNMLMFDNEYELTGDLKLKDALSNIREAFIGGNYDINSHLPLIPEKIKSLKFEGDVFNPEGRDLITDWDDVILALGSQVCKGIRDSIKDILGYTTSCGLSSTKNVCKLASNYKKPDAQTIVKNDCLLDFLDCGKFEITSFWTLGGVLGKELIDVLDLPHENSIKHIRETWPDNAGQLKEFLDAKVKQSDYDRSTSNIDPLKTADLAEKLFKLSRGRYGLPLSSRPVVKSMMSNKNLRGKSCNSIVDCISWLEVFCAELTSRIQDLEQEYNKIVIPRTVSISLKTKSYEVYRKSGPVAYKGINFQSHELLKVGIKFVTDLDIKGKNKSYYPLTKLSMTITNFDIIDLQKTVVDMFGNQVHTFKSSAG,soluble
2,MATAFTHSGKFHADDVFSAALLLYLNPEITITRGNRVPEDFDGIVFDIGRGRYDHHQKDSRVRENGIAYAAFGLLWEELGSEILGEELAQKFDEAFVQPLDNNDNTGEKNELASLIGNFNPTWDAEGSNDEAFFQAVSVAGMILENKFDRYRGNERADKRVEEIYERHMQAFHDREKHSEDAKILILPEFVPCQKFLSETPVAFVIFPSNRGGYCIQPQKKEYSMNYKCSFPSEWLGLENEELQEVTGLKTAGFCHKGGFLMTTGELADAVQACKISMEQFREKPVIVSFGGDTEYDELLHQIPKLQAAEIIHIDIQPLPEVEIQGIYAEVSMEKQEWKARIKEQVKQILKYKPEAVFVGENLFVAYPIVHALRKKHIPVLVPAEKDGQKLLIRIPSGSLEHHHHHH,soluble
3,MATAVELALLKQPYFDLNALCKTVFVTYKAGPGLKKIVTVQAQYVDICNKPNVRGTVVSLPGSPGSHNDIKYMRDSFEKHNIRLICVNWPGSEFVTGGMNDTYTNAERNSYAKALMEKLELKKVEKLILLGHSRGGESALQLACTLSDDRSWPLIGAVMLNSPGFVVHRGISIRMGTINTVSFLVKLRWKIVDCILFPVLDWFYNDFVGLRVSDGKVCAAAMLPMQTFAFEEQRASIDEMKKKPWIRMFYAYGSKDFLVDESDSEELAMHFGGDHYIIHSKKESEETIPKIWNSYERGQSYVTANFTEEGHYLHKTYPEFLIQIFGGIFDVKTEKS,not soluble
4,MATCLVEFAKSPPVFSPGEKVTGNVKMTIPDDEFKARKVRMEMIGKAYTYWEGNVRNNHTKIKNGDIARVRHNCADHKGKIVYCRFETIVWKSDGAKNDMPSGPHIFPFSFQLPHWAPPSFEGDLGFIRYFIKVEIDRPWKFDDKFITCLTVLPNIDLRLIPNSQVPSKKHVCEEFGAVLWKNGLVRMELRLPKQGFVCGENIPVTMIVDNKTSKSFKKISLRLVQRVTYTGFRDGFVNSHSQPCIGNEKEKITYATRLNAQTRVEERQISETNIDIKIDKNEKQEVEKPIPLPPLPPSTKTCEIIDVEYFLKVKMSTSGALKSAVKLELAFIIGTMPIDPERKYEYKKSVFGFAATSLKNRDVQKFAPLYPVFKFDE,not soluble
5,MATIRDVAKRAGVSVATVSRVLNQNGYVNEETERRVRQAMKELNYKPNEVARALFKKTSKTVGLIVPDITNPFFPELVRAVEDVMNIYDYTVILCNSDEKVEKEREYIEVLKQKYVDGVILTTNQFAPEEVEEWDVPIVVLDRPLHERYPSVVADNYEGARLATRHLYEVGCRRIAHIQGPNHVVNAMERFRGYQDEMRALGLGDRQLVIQGNYQLKQAKEAVMAALAEHDMDGIFAGNDAMAVGALKAVQQCGLRVPDDIAIIGYDGIPLTEMTTPELSTVSQPIYEMGAMAARILIKQIEGKPLEKLHYQLPVQLVVRQSTSRRGLT,soluble
6,MATIRKADYYYGALLSALVNGGLAPALFEKENDNRQIYEVTTNKASYIMYTKYNTNPSGSKDFTWSFVFSDHEIAEINKIYLEHSKEKEIMFAFVCAQKQPSDSNQVIAIVRWNEFLECVDLQRQQVRGTPRLSIKAVKGSPKLRLYGSKRADVLDGKDHTIKIERNRLNSL,not soluble
7,MATKHDQILKHIEDLPIGDRISVRSIAKSLSVSEGTAYRAIKDAENIGLVSTIQRVGTIRIERKLKKHIEKLTFGEVVRIIEGDVLGGSSGLDKVLNKFVIGAMTETAMTRYITPGSLMIVGNRQGVQKLALENGAAVLITGGFETSEEIAQLADRLGMPVLRTTYDTFTVATMINRALSDQLIKKDILLVSDIYTALEKTNYLLTTQTIADYQALSESTHHSRFPVVNKKLRLVGIVTAKDVIGKSEHLTVDKVMTKDPNVVKKMMSVASVSHQMIWDGLEVMPVVEDDLALVGIVSRQDVMKAMQLVQRQPQIADTISDQISGEVMPVEENGKETTRFRFSVAPQMVNSVGTISFGVLSEIISNVTQRTMLMNQKRNVLIEQVNLHYLRLIQLESELDIRPRILEIGRRSAKLDIEVYLENVIVAKAIVVCQVMERT,not soluble
8,MATLFIADLHLQTEEPAITAGFLRFLQGEARQADALYILGDLFEAWIGDDDPNPLHQQIASAIKAVVDAGVPCYFIHGNRDFLVGQRFARQSGMILLAEEERLDLYGREVLIMHGDTLCTDDQGYLAFRAKVHTPWIQRLFLALPLFIRHRIAARMRADSKAANSSKSMEIMDVNPQAVVDAMERHHVQWLIHGHTHRPAVHELQANGQPAWRVVLGAWHSEGSMVKVTPDDVELIHFPF,not soluble
9,MATPALLPGVDLAAFAAALAARLRDAGIPVSASGQASLVQALQQLVPRTPAALYWGARLTLVSRVDELATFDAVFASLFGVFGSAEPDGANRPPPPIAGPRTPVAGVGHRAKRRSCAAQAQNLPWDTRSLTMASAGQGGPSRTLPDVLPSRIVARADEPFDQFDPDDLRLLGAWLEATMARWPRRRSMRFESSPHGKRIDLRATMNASRSTGWESVLLARIRPRRRPRRVLLLCDVSRSMQPYAAIYLRLMRAAVLRRAGGHPEVFAFSTSLTRLTSVLSHRSAEMALHRANARVTDRYGGTFIGRSVAALLAPPHGNALRGAVVIIASDGWDSDPPDVLVHALTRVRRRAELLVWLNPRAAHPEFQPRAGSMAAALPYCDLFLPAHSLAGLHQLLLALAGAR,soluble
10,MATQINQKFGSKYKSNRKDETPMFEVRNGKSVIKNSGNHEATVNRTLDFHMTKLFQWEEQSDAIESSYVCALCHENGEKRELFGPYYATHNPIKYWPSFLAKKPTAKKPTKIELWFHGSCVLWAPNVHLHGNQLTNLDNQIDIFWSQTCIVCRKTGAAISVQNKKNTFIHYPCAKNKGYKLDEHALLCNS,soluble
11,MATQQPALVLDPTGADHHTEHRTLREGGPATWVDVLGVQAWSVSDPVLLKQLLTSSDVSKDARAHWPAFGEVVGTWPLALWVAVENMFTAYGPNHRKLRRLVAPAFSARRVDAMRPAVEAMVTGLVDRLAELPAGEPVDLRQELAYPLPIAVIGHLMGVPQDRRDGFRALVDGVFDTTLDQAEAQANTARLYEVLDQLIAAKRATPGDDMTSLLIAARDDEGDGDRLSPEELRDTLLLMISAGYETTVNVIDQAVHTLLTRPDQLALVRKGEVTWADVVEETLRHEPAVKHLPLRYAVTDIALPDGRTIARGEPILASYAAANRHPDWHEDADTFDATRTVKEHLAFGHGVHFCLGAPLARMEVTLALESLFGRFPDLRLADPAEELPPVPSLISNGHQRLPVLLHAG,soluble
12,MATTQQSSTKQDILEYLLKEVQATSLELAEVLEVSPQAIRRHLKDLETDNLVVYFVPEQVGMGRPQHLYQLSQRGREQLQRNVNRLSDGYGDFAVSLLDTLAATVGREQVKTILQKQWERKAQEYRERVGTGSLQERVANLVELRKAEGFMAEFYPVESDSAHSERFIFMEHTCAISNVAESFPSICGHELEMFAAILPDCTVKRTHWLIDGEHRCGYLVQRSSGVTGVTEVEN,not soluble
13,MATVAELKAVLKDTLEKKGVLGHLKARIRAEVFNALDDDREPRPSLSHENLLINELIREYLEFNKYKYTASVLIAESGQPVVPLDRQFLIHELNAFEESKDNTIPLLYGILAHFLRGTKDGIQNAFLKGPSLQPSDPSLGRQPSRRKPMDDHLRKEEQKSTNIEDLHVSQAVNR,soluble
14,MATYNGQGFIHDQLDSIRNQTLRPDYVLMRDDGSTDDTVKVVEDYIKEHRLDGWSITSNDKNLGWRLNFRQLLIDVLAYEVDYVFFSDQDDTWYHHKNKMQVDIMEERQDINLLSADIDIKKLSEEATIPNNFKFNGEETISKYPLDFSYHNYRQGWTFCLRKSFVDQVMTFYSDNLILSHDNLFAGVSGVIGSGYNLNRSVGEHKRHAENASGNILNMSSSYERHLQELYFVLSYYIILVPFLEKSSSSQLREAKAYLDFNQQRYKNAQNKDFVAILKQMMTKKRFYDSFSNRIRDLVFLLKDIKRSLEHHHHHH,soluble
15,MAVAALKALLPPERLRRLTPLGGFEARVYTDGERVYKVYRKEEAHLAGLEARRMARAGFGSLVLAVIQGAEGGVLVTRRFPGRPFAPEAFTSKTLAALSHLFLALHRLPEPGKVTQEELLSRLERFAESLHDQPEALSLVQALKREVGLAAGVERRFCHRDAWAGNLLLKAPEAEGPEVFLVDWARAGGDDPARDLALLKTGSLDLLGEEAARAALFRMARLYPKEVRERLAFYVPLTYLHDLHWFRTKEPQGFPQALEEKLPKALAFFRDFFPRRGAW,soluble
16,MAVDDAQALALFLRDRTGRSSHTLRAYGAELRRLMRWCGTHGFGPFSDLTRQQLLAYRHTLEHGSSGTANTTPPLSEATRTRALAVVASLYGYWYATGYLHANPAAGLSAGSRLEHHHHHH,not soluble
17,MAVMSYIDAITLAMREEMERDEKVFVLGEDVGKKGGVFKATHGLYDQFGEDRALDTPLAESAIAGVAIGAAMYGMRPIAEMQFADFIMPAVNQIVSEAAKIRYRSNNDWTCPITVRAPFGGGVHGALYHSQSVEAMFANQPGLKIVIPSTPYDAKGLLKAAIRDEDPVLFFEHKRAYRLIKGEVPEDDYVLPIGKADVKREGDDITVITYGLCVHFALQAAEKLAQDGISAHILDLRTVYPLDKEAIIEAASKTGKVLLVTEDNKEGSIMSEVAAIIAENCLFDLDAPIARLAGPDVPAMPYAPTMEKFFMVNPDKVEKAMRELAEF,not soluble
18,MAVPESKEALIKAINSQFTLLMKKIDAVPAERAFSPEMAGHAQGTQMSPANLVAYLLGWGNVVLKWHEDEEQGKTIDFPEAGYKWNQLGLLAQKFYQDYAPITDWAELIALLAANKLALIALVERYTDEQLYGEGWYGKWTRGRMIQFNTAAPYKNAAGRLRTWEKNKLEHHHHHH,not soluble
19,MAVTDLSLTNSSLMPTLNPMIQQLALAIAASWQSLPLKPYQLPEDLGYVEGRLEGEKLVIENRCYQTPQFRKMHLELAKVGKGLDILHCVMFPEPLYGLPLFGCNIVAGPGGVSAAIADLSPTQSDRQLPAAYQKSLAELGQPEFEQQRELPPWGEIFSEYCLFIRPSNVTEEERFVQRVVDFLQIHCHQSIVAEPLSEAQTLEHRQGQIHYCQQQQKNDKTRRVLEKAFGEAWAERYMSQVLFDVIQ,soluble
